Experimental data as given in patent US12630596B2, “Engineered lysin-human defensin protein” (priority 2018, dated 2026).
Entries after “also recorded” stand apart in the source; their conditions may differ.

Experiments:
[1] = system: C. difficile R20291 spores; test: Treatment efficacy in the mouse model of CDI; format: in vivo, C57BL/6 mice; conditions: mice
Protocol: After 5 days of antibiotic pretreatment, mice were given autoclaved water for 2 days, followed by a single dose of clindamycin (10 mg/kg) intraperitoneally, 1 day before (day-1) challenge with C. difficile R20291 spores by gavage (day 0). The first group (R20291+PB) was infected with 10^6 C. difficile R20291 spores on day 0, and was given PBS (PB) by gavage at 4 h after spore gavage, followed by administration of PB by gavage twice a day from the first day (day 1) to the seventh day (day 7) after spore gavage. The second group (LHD+R20291) was given 400 μg LHD by gavage at 4 h after spore gavage, followed by treatments of 400 μg LHD by gavage twice a day from day 1 to day 7 after spore gavage.
C57BL/6 mice (6-week-old) were purchased from Charles River Laboratories, MA. The mice were housed in groups of 5 animals per cage under the same conditions. All studies followed the Guide for the Care and Use of Laboratory Animals of the National Institutes of Health, and were approved by the Institutes Animal Care and Use Committee (IACUC) at University of South Florida under the animal protocol number 1S00003756. Mouse model of CDI was established as described previously (Zhang, Zhao et al. 2015). The experimental design is illustrated in FIG. 6. Briefly, twenty BL6/C57 female mice were divided into two groups (n=10). Before challenge, mice were pre-treated with antibiotics mixture (ampicillin (200 mg/kg), kanamycin (40 mg/kg), gentamicin (3.5 mg/kg), colistin (4.2 mg/kg), metronidazole (21.5 mg/kg) and vancomycin (4.5 mg/kg)) in drinking water for five days. After that, all mice were given autoclaved water for 2 days, followed by a single dose of clindamycin (10 mg/kg) intraperitoneally 1 day before (day-1) challenge with C. difficile R20291 spores at 10^6 by gavage (day 0). At 4-hr post infection, one group of mice (R20291+LHD) were given a dose of 400 μg LHD in 200 μL of PBS by gavage, and another group of mice (R20291+PB) received sterilized PBS as control. From the first day (day 1) to the seventh day (day 7) after infection, mice were given a dose of 400 μg LHD or PBS by gavage twice a day. Weight changes, diarrhea, and survivals of the mice were recorded during the 7-day monitoring period. Fecal samples from mice were collected at days 0, 1, 3, 5, and 7 post challenge for quantitating C. difficile spores and TcdA/TcdB concentration.
Fecal samples were collected on days 1, 3, 5, 7 post-infection. 50 mg of feces were dissolved with 500 μl sterile MilliQ water for 16 h at 4° C., and then treated with 500 μl of purified ethanol (Sigma-Aldrich) for 60 min at room temperature to kill vegetative cells. Samples were vortexed, serially diluted and plated onto selective medium supplemented with taurocholate (0.1% w/v), Cefoxitin (16 μg/mL), L-cycloserine (250 μg/mL). The plates were incubated anaerobically at 37° C. for 48 h, colonies counted and results expressed as the CFU/gram of feces.
After challenges with C. difficile spores, feces were collected and dissolved in an equal volume (g/ml) of sterile PBS containing protease inhibitor cocktail and the supernatants were collected after centrifugation and stored at −80° C. TcdA/TcdB concentrations in the fecal samples of […] were determined by ELISA. Brieflly, 96-well Costar microplates were coated with 100 μl of anti-TcdA antibody (1 μg/ml) and anti-TcdB antibody (1 μg/ml) overnight in phosphate-buffered saline (PBS) at 4° C. On the next day, each well was blocked with 300 ul of blocking buffer (PBS+5% dry milk) at RT for 2 hrs. Next, standards and samples were added to each well (100 μl) in duplicate and incubated for 90 min at 25° C. After another set of washes, HRP-chicken anti-C. difficile Toxin A or B (1:5,000 dilution in PBS, Gallus Immunotech, Shirley, MA) was added to wells for 30 min at RT. A final set of 3 washes preceded the addition of the TMB Microwell Peroxidase Substrate for 20 minutes at RT in the dark. […]

[2] = system: C. difficile strains M120, VPI 10463, CD630, LC693, 1377; test: Optical drop assay, lytic activity on other clinical epidemic C. difficile strains; format: cell-based, Clostridium difficile
Text: C. difficile strains R20291 (ribotype 027), M120 (ribotype 078), VPI 10463 (ribotype 087; ATCC 43255), CD630 (ribotype 012), LC693 (ribotype unknown, ST201), and 1377 (ribotype 012) were used in this study. Strains M120 and VPI 10463 were provided by Dr. Joseph A. Sorg from Texas A&M University. Strains R20291 and CD630 were provided by Dr. Abraham L. Sonenshein from Tufts University. Strains 1377 and LC693 were epidemic clinical strains in China (Li, Liu et al. 2015, Peng, Liu et al. 2017).
The lytic activity of proteins LHD and LCD against C. difficile strains was determined as previously described (Wang, Euler et al. 2015). Briefly, C. difficile strains were cultured in an anaerobic chamber to mid-log phase, and the bacterial pellets were harvested by centrifugation at 3000×g for 5 min. Pellets were washed twice and re-suspended in sterilized ddH2O, and resuspensions were not buffered. Prior to tests, bacterial optical density at 600 nm (OD600) was adjusted to approximately 0.8-1.0. Proteins LHD and LCD were added into the cell re-suspension with the final concentration of 200 μg/ml. The drop in OD600 at 37° C. was measured every 10 minutes for 60 min˜90 min. Bacterial re-suspension with sterilized water was also set as a control. Three repeats were included in each test.

C. difficile R20291 = test: Lytic activity of LHD on R20291 in different pH conditions; format: cell-based, Clostridium difficile
Protocol: Prior to tests, bacterial optical density at 600 nm (OD600) was adjusted to approximately 0.8-1.0. Protein LHD was added into the cell re-suspension with the final concentration of 200 μg/ml. The drop in OD600 at 37° C. was measured once per 20 minutes for 60 min. Bacterial re-suspension with sterilized water was also set as a control. Data are present as “Mean±SD”. Experiments were repeated 3 times, and representative data were shown.
Prior to tests, bacterial optical density at 600 nm (OD600) was adjusted to approximately 0.8-1.0. Protein LHD was added into the cell re-suspension with the final concentration of 100 μg/ml. The drop in OD600 at 37° C. was measured once per 20 minutes for 60 min. Bacterial re-suspension with sterile water was also set as a control. Experiments were repeated 3 times, and representative data were shown. […]

[3] = 400 μg LHD by gavage twice a day, vs PBS
[4] = R20291 spores, 400 μg LHD by gavage twice a day

B1: LHD: Fusion of phage phiC2 lysin catalytic domain (LCD, 179aa), (GGGGS)3 linker and human alpha-defensin 5; SEQ ID NO:1 (protein)
chain: MKICITVGHSILKSGACTSADGVVNEYQYNKSLAPVLADTFRKEGHKVDVIICPEKQFKTKNEEKSYKIPRVNSGGYDLLIELHLNASNGQGKGSEVLYYSNKGLEYATRICDKLGTVFKNRGAKLDKRLYILNSSKPTAVLIESFFCDNKEDYDKAKKLGHEGIAKLIVEGVLNKNINGGGGSGGGGSGGGGSATCYCRTGRCATRESLSGVCEISGRLYRLCCR
number of C. difficile spores in feces [1, 3]: significantly decreased | toxin-level in feces (TcdA, TcdB) [1, 3]: significantly decreased | survival ([1]; 7-day experimental period, 400 μg LHD by gavage twice a day): all mice receiving the treatment of LHD survived | diarrhea rate [1, 4]: 60% | duration of diarrhea [1, 4]: 3 days | weight loss ([1]; R20291 spores, 400 μg LHD by gavage twice a day, vs PBS): decreased both weight loss and diarrhea rate significantly; also recorded: significantly less weight | weight recovery ([1]; from 3 dpi to 7 dpi, vs PBS): slower | lytic activity (drop in OD600) ([2]; different types of clinical epidemic strains, 200 μg/ml): potent lytic activities | lytic activity compared with LCD ([2]; strain M120, p<0.05): more potent than LCD | lytic activity compared with LCD ([2]; strains VP110463, CD630, LC693 and 1377): slightly more potent | lytic activity at pH (C. difficile R20291; PH of 5, R20291): partially active | lytic activity at pH (C. difficile R20291; PHs of 2, 3, and 4, R20291): lost almost all activity | lytic activity at pH (C. difficile R20291; PHs of 6 and 7, 200 μg/ml, R20291): more efficiently
